In assay [1] the test system is NIH-3T3 fibroblast cells. Briefly: NIH-3T3 proliferation assay. The assay is classed as cell-based. The note with it: two days, different concentrations. Here is the method: (§1) Cell migration assays were performed on growth arrested confluent HMVEC, BAEC or hSMC cells. Cell monolayers were wounded with a rubber policeman and washed with serum-free medium. Dishes were then incubated for 20 hours in serum-free medium containing VEGF165, PDGF-AA, (R&D Systems, Minneapolis USA) or PDGF-CC. Each assay included two dishes per condition and was repeated three times independently. Cells were photographed at 40× magnification, and migration percentage corresponding to the ratio between area of the cells and the total area of the wound (Biocom visiol@b 2000 version 4.52, San Diego). For HMVEC proliferation assay, cells were seeded in 96-well plates (5 wells per condition), and incubated with VEGF, PDGF-AA, or PDGF-CC (50 ng/ml) after serum starvation. After 7 days, viable cells were counted using the cell Titer-glo luminescent cell viability assay. For NIH-3T3 and hSMC proliferation assay, cells cultured in 96-well plates were serum-starved overnight, followed by treatment with growth factors at different concentrations. Two days later, cell numbers were counted and proliferation percentage calculated, using cells cultured in medium containing 10% serum as control. Aortic ring assay was performed as described 51. […] Aortic rings were analysed at day 9 of culturing. […]

Assay [2] relates to human microvascular endothelial cells (HMVEC). In words: Cell migration assay, HMVEC. The format is cell-based. As to conditions: wounded monolayer, 20 hours, serum-free medium. Here is the method:
as §1

Consider one molecule from patent publication US20070172423A1, “Composition and method for modulating vasculogenesis for angiogenesis” (priority 1998, published 2007).

B1: PDGF-CC: recombinant human PDGF-CC core domain homodimer, residues 230-345 of full-length PDGF-C (SEQ ID NO:40), produced in baculovirus infected insect cells (protein)
chain: GRKSRVVDLNLLTEEVRLYSCTPRNFSVSIREELKRTDTIFWPGCLLVKRCGGNCACCLHNCNECQCVPSKVTKKYHEVLQLRPKTGVRGLHKSLTDVALEHHEECDCVCRGSTGG
modifications: homodimer; PDGF-C core domain
For the molecule B1, the “proliferation of cultured NIH-3T3 fibroblast cells” value in assay [1] is on record as “stimulated”. Also, the “migration of HMVECs” value in assay [2] is listed as “stimulated”.
